Assay: yeast display, Sf9 membrane polyspecificity reagent, FACS + sequencing; frameworks hold sequencing errors
In short: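 Synthetic nanobody libraries on Saccharomyces cerevisiae BJ5465 were galactose-induced for 36–48 hours, stained 1 hour at 4 °C with 10% biotinylated, detergent-solubilized Sf9 membrane reagent and enriched on streptavidin microbeads. FACS then separated cells into low and high (top ~1%) gates by anti-HA (expression) and streptavidin (reagent binding) fluorescence. Genes were colony-PCR amplified, MiSeq 2 × 250 sequenced and CDR-length filtered. A clone's polyreactivity label is that of its gate of origin.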

QVQIVESGGGLVQAGGSLRLSCAASGYTFRFNAMGWYRQAPGKEREFVAAIDFGGAGTYYADSVKGRFTISRDNAKNTVYLQMNSLKPEDTAVYYCNARDGVTTEFDYWGQGTQVTVSS
polyreactivity (PSR sort gate): low polyreactivity

QVQLVESGGGLVQAGGSLRLSCAASGIFIDSNAMGWNRQAPGKERELVAAITSGGSTKYADSVKGRFTISRDTAKNTVYLQMNSLKPVDTAVYYCNAGPAVRSAYSTPYYDYWGLGTQVTVSS
polyreactivity (PSR sort gate): low polyreactivity

QVQLVESGGGLVQAGGSLRLSCAASGSTFGTYAMGWYRKAPGKERELVAAISTGGSTYYADSVKGRFTISRDNAKNTVYLQMNSLKPEDTAVYYCAALADYVRRASEYWGQGTQVTVSS
polyreactivity (PSR sort gate): high polyreactivity

QVQLVESGGGLGQAGGSLRLSCAASGSIFYYYAMGWYRQAPGKERELVAGINSGDSTYYADSVKGRFTISRDNAKNTVYLQMNRLKPEDTAVYYCAASADGWYEYWGQGTQVTVSS
polyreactivity (PSR sort gate): low polyreactivity

QVQLVESGGGLVQAGGSLRLICAASGIILVYYDMGWYRQAPGKEMELVDTISRGGSTNYADSVMGRFTISRDNAKNTVYLQMISLKPEDTAVNYCAAGSYSIWVHLVRYYYWGQGTQVTVSS
polyreactivity (PSR sort gate): high polyreactivity

QVQLVESGGGLVQAGGSLRLSCAPCGSIFPAYTMGWYRRAPGKERELVAAISRRGGSTYYADCVKGRFTISRDNEKNTVYLQMNRLKPEDTAVYDCAKVPDYRFEYWGQGSQVTVSS
polyreactivity (PSR sort gate): high polyreactivity

QVHLVESGGGLVQAGGSLRLSCDASGRTFFPYGMGWYRQAPGKQRELVATISWSGGSTHYADSVKGRFTISRDNAKNTVYLQMNSLKPEDNAVYYCNKTSFLVKLDYWGQVTQVTVSS
polyreactivity (PSR sort gate): high polyreactivity

QVQLVESGGGLVQAGGSLRLSCAASGITFNQYAMGWYRQAPGKERELVARITKRGGSTYYADSVKGRFTISRDNAKNTVYLQMNSLKPEDTAVYYCAARTYYQEYDYWGQGTQVTVSS
polyreactivity (PSR sort gate): high polyreactivity

QVQLVDSGGGLVQAGGSLRLSCAASGRIFSVYAMGWYRQAPGNERELVAAITRVGSTNYADSVKGRFTISRDNAKNTVYLQMNSLKPEDTAVYYCAASKYGSLSGYWGQGTQVTVSS
polyreactivity (PSR sort gate): high polyreactivity

QVQLVESGGGLVQAGGSLRLSCAASGRIFYYYAMGWYRQAPGKERELVAAITRRGGSTYYADSVKGRFTISRDNAKNTVYLQMNSLKPEDTAVYYCAKPDRTGWLDGDYWGQGTQVTVSS
polyreactivity (PSR sort gate): low polyreactivity

QVQLVESGGGLVQAGGSLRLSCAASAYILFKYAKGSYRQAPGKERELVAGITRGGTTYYADSVKGRFTISRDNAKNTVYLQMNSLKPEDTAVYYCAVAITFSSYKFYYWGQGTQVTVSS
polyreactivity (PSR sort gate): high polyreactivity

QVQLVESGGGLVQAGGSLRLSCAASGSIYVYYGMGWYRQAPGKERELVAAISSGGSTHYADSVKGRFTISRDNAKNTVYLQMNSLKPEDTAVYYCAADRFFWLRSYPRYYYWGQGTQVTVSS
polyreactivity (PSR sort gate): low polyreactivity

QVQLVESGGGLVQAGGSLRLSCAASGSTFAPYAMGWYRQAPGKERELVAAIRSSGGSTYYADSVKGRFTISRDNAKNTVYLQMNSLKPEDTAVYYCADDYYTSADYVDYYYWGQGTQVTVSS
polyreactivity (PSR sort gate): low polyreactivity

QVQLVESGGGLVQAGGSLRLSCAASGSIFSTYAMGWYRQAPGTERELVAAITWSGGSTYYADSVKGRFTISRDNAKNTVYFQMNSLKPEDTAVYYCATRGQGWGGKYGYWGQGTQVTVSS
polyreactivity (PSR sort gate): low polyreactivity

QVQLVESGGGLVQAGGSLRLSCAASGIILHYYAMGSYRQAPGKERELVAAISARGGRTYYADSVKGRFTISRDNAKNTVYLQMNSLKPEDTAVYYCARYLRRSSPSPGYGYWGQGTQVTVSS
polyreactivity (PSR sort gate): high polyreactivity

QVQLVESGGGLVQAGGSLRLSCAASGNTFSQYAMGWYRQAPGKERELVATISKSSGSTSYADSVKGRFTISRDNAKNTVYLQMNSLKPEDTAVYYCNADSSDVYHHLGVLFFSTWYDYWGQGTQVTVSS
polyreactivity (PSR sort gate): low polyreactivity

QVQLVESGGGLVQAGGSLRLSCAASGSTIGFYAMGWYRQAPGKERELVAVISSGDSTYYADSVKGRFTISRDNAKNTVYLQMNSLKPEDTAVYYCAKDALVIDGGGGYDYWGQGTQVTVSS
polyreactivity (PSR sort gate): low polyreactivity

QVQLVESGGGLVQAGGSLRLSCAASGSIFATNSMGWYRQAPGKERELVAAISRSGASTYYADSVKGRFTISRDNAKNTVYLQMNSLKPEDTAVYYCNKVLYRDAYHSYCFDYWGQGTQVTVSS
polyreactivity (PSR sort gate): high polyreactivity

QVQLVESGGGLVQAGGSLRLSCAASGGIFYYYAMGWYRQAPGKERELVAAISWSGGSTYYADSVKGRFTISRDNAKNTVYLQMNSLKPDDTAVYYCATYSDFHYAQLEYDYWGQGTQVTVSS
polyreactivity (PSR sort gate): low polyreactivity

QFHLVESGGGLVQAGGSLRLSCAASGSNILYYVMGWYRQAPRKERELVAAITWDGGSTYYADSVKGRFTISRDNAKNTVYLELNSLIPEDTAVYYCNKVTTYSYYTEPYEYWGQGTQVTVSS
polyreactivity (PSR sort gate): low polyreactivity

QVQLVESGGGLVQAGGSLRLSCAASGSIFKRYAMGWYRQAPGKERELVAAISYSGGSTYYADSVKGLFTISRDNAKNTVYLQMNSLKPEDTAVDYCARGWFYPYYWGQGTQVTVSS
polyreactivity (PSR sort gate): high polyreactivity

QVQLVESGGGLVQAGGSLRLSCAASGRTFGGNAMGWYRQAPGKERELVAVIRSTGGSTYYADSVKGRFTISRDNAKNTVYLQMNSLKPEDTAVYYCAKGRGRNFGYWGQGTQVTVSS
polyreactivity (PSR sort gate): high polyreactivity

QVQLVESGGGLVQAGGSLRLSCAASGFIFGYNAMGWYRQAPGKERELVAAITASGGSTYYADSVKGRFTISRDNAKNTVYLQMNSLKPEDTAVYYCATVLRKNGERVNRLYYWGQGTQVTVSS
polyreactivity (PSR sort gate): high polyreactivity

HVQLVESGGGLVQAGGSLRLSCAASGRSFYKYAMGWYRQAPGKERELVAAISLRGARTYYADSVKGRFTISRDNATNTVYLQMHSLKPEETAVYYCAADNYYVRYAYNKSYSWGQGTQVTGSS
polyreactivity (PSR sort gate): low polyreactivity

QVQLVESGGGLVQAGGSLRLSCAPSGSTFDIYAMGWYRQAPGKERELVARISSGGGRTYYADSVKGRFTISRDNAKNTVYLQMNSLKPEDTAVYYCARDNEPDYYSYPYDYWGQGTQVTVSS
polyreactivity (PSR sort gate): low polyreactivity

QVQLVESGGGLVQAGGSLRLSSAASGRTFRYNAMGWYRQAPGKERELVAAIRRGGSTNYADSVKGRITISRDNAKNTVYLQMNSLKPEDTAFYFCAKGHPNDFGYWGQGTQVTVSS
polyreactivity (PSR sort gate): high polyreactivity

QVQLVESGGGLVQAGGSLRLSCAASGRIFPRYAMGWYRQAPGKERELVARITRRGGITYYADSVKGRFTISRDNAKNTVYLQRNSLIPEDTAVYYCNVDYYSGGEFSYGYDYWGQGTQVTVSS
polyreactivity (PSR sort gate): high polyreactivity

QVQLVESRGGLVQAGGSLRLSCAASGSTFYFYDMGLYRQAPGKERELVGAISSSGGDTYYADSVKGRFTISRDNAKNTVYLQMNSLKPEDTAVYYCAAGQLYSGYEYWGQGTQVTVSS
polyreactivity (PSR sort gate): low polyreactivity

QVQLVESGGGLVQAGGSLRLSCAASGGTFGQYAMGWYRQAPGKERELVAAITSSGGRTYYADSVKGRFTISRDNAKNTVYLQMNSLKPEDTAVYYCAADVQSRYVGEGDYWGQGTQVTVSS
polyreactivity (PSR sort gate): high polyreactivity

QVQLVESGGRLVQAGGSLRLTCAASGSTFPKYAMGWYRQAPGKERELVASISVTTGSTYYADSVKGRFTISRDNAKNTVYLQMNSLKPVDTAVYYCAKRTYSRKFRGAYNYWGQGTQVTVSS
polyreactivity (PSR sort gate): high polyreactivity

QVQLVESGGGLVQAGGSLRLSCAASGRTFPIYAMGWYRQAPGKERELVAAITSYRRGTTYYADSVKGRFTISRDNAKNTVYLQMNSLKPEDTAVYYCTARTLRGGEYKYWGQGTPVTVSS
polyreactivity (PSR sort gate): high polyreactivity

QVQLVESGGGFVHAGGSLRLSCAASGITSRFYAIGWYRQAPAKERELVAAITSGGGSTRYSDSVKGRFTISRDNAKNTVYLQMNSLKPEDTAVYYCNARVLYYVNGYGGCKRYGYWGQGTQVNVSS
polyreactivity (PSR sort gate): high polyreactivity
